B1: C33B904 hIgG1 (antibody, V domains shown)
VH: EVQLVESGGGLVQPGRSLRLSCAASGFTFDDYAMHWVRQAPGKGLEWVSGIGWSGGSIVYADSVKGRFTISRDNAKNSLYLQMNSLRAEDTALYYCAKDSPYGDFFDYWGQGTLVTVSS
VL: DIVMTQSPDSLAVSLGERATINCKSSQTVFYSSNNKNYLAWYQQKPGQPPKLLISWASTRKSGVPDRFSGSGSGTDFTLTVSSLQAEDVAVYYCQHYYSTPYTFGQGTKLEIKR
notes: intact human IgG1; variable regions from US20190382481A1; also called C33B3904; C331B904
B2: C33B904 (antibody, human IgG1, kappa, V domains shown)
VH: B1 VH
VL: B1 VL
notes: control antibody, intact human IgG1 form; variable regions from US20190382481A1; also called C33B904 hIgG1; C331B904

What was measured:
[1] = biological target: T1, human CD33-His (extracellular domain Asp 18-His 259) (human, UniProt P20138 18-259); assay: competitive ELISA vs coated S006-NB147-220 3ug/mL; soluble 25ug/ml
T1 construct: range 18-259; bought protein; also called hCD33-his; human CD33 protein; not shown: His tag

[2] = biological target: T2, human CD33 on U937 cells (endogenous) (human, UniProt P20138 18-364); assay: FACS, U937 cells
T2 construct: whole, on cells
Description: The desired cells were expanded to a logarithmic growth phase in a T-75 cell culture flask. For adherent cells CHO-K1, the culture medium was removed by pipetting, and the cells were washed twice with a PBS buffer, digested with trypsin, and washed twice with a PBS buffer again after the digestion was stopped. For suspension cells U937, the medium supernatant was discarded by direct centrifugation, and the cell pellet was washed twice with PBS, and then incubated with a buffer containing human Fc Block (purchased from BD, Cat. No. 564220) for 15 min. After the cells obtained in the last step were subjected to cell counting, the cell pellet was resuspended to 2×10⁶ cells/mL with a blocking solution [PBS+2% (w/w) BSA] and added to a 96-well FACS reaction plate at 50 μL/well. The VHH-Fc antibody (a sample to be tested) was added at 50 μL/well, and the plate was incubated on ice for 2 h. […] After the plate was centrifuged and washed 5 times with a PBS buffer, the results were assayed and analyzed by FACS (FACS Canto™, purchased from BD Biosciences), so as to obtain the mean fluorescence intensity (MFI) of cells. Then, analysis was performed by software (GraphPad Prism8), data were fitted, and EC50 values were calculated.

[3] = biological target: T1, human CD33-His (extracellular domain …); assay: ELISA on coated human CD33-his
Description: In order to assay the binding activity of VHH-Fc to human CD33 protein, a human CD33-his protein (purchased from ACROBiosystems, Cat. No. CD3-H5226) was diluted with PBS to make a final concentration of 2 μg/mL, and then added into a 96-well ELISA plate at 100 μL/well. The plate was sealed with a plastic film and incubated at 4° C. overnight, washed twice with PBS the next day, and a blocking solution [PBS+2% (w/w) BSA] was added for blocking at room temperature for 2 h. The blocking solution was discarded, and VHH-Fc antibody or negative control antibody serially diluted from 100 nM was added at 50 μL/well. After incubation at 37° C. for 2 h, the plate was washed 3 times with PBS. A secondary antibody labeled with HRP (horseradish peroxidase) (purchased from Sigma, Cat. No. A0170) was added. After incubation for 1 h at 37° C., the plate was washed 5 times with PBS. A TMB substrate was added at 50 μL/well. After incubation at room temperature for 10 min, a stop solution (1.0 N HCl) was added at 50 μL/well. The OD450 nm values were read on an ELISA plate reader (Multimode Plate Reader, EnSight, purchased from Perkin Elmer). The assay results for the binding of the VHH-Fc to hCD33-his by ELISA are shown in FIGS. 7A and 7B and Tables 11 and 12. […] The IgG control was hIgG1, and the data in the table are OD450 nm values. […]

human CD33-his protein [4] = biological target: T3, human CD33-his protein (human, UniProt P20138 18-259); assay: competition ELISA, coated human CD33-his, vs Biotin-C33B904 at EC80; antibody 250.00 nM
T3 construct: range 18-259; bought protein; also called hCD33-his; recombinant human CD33-his; not shown: His tag
Description: (§1) The plate was sealed with a plastic film and incubated at 4° C. overnight, washed twice with PBS the next day, and a blocking solution [PBS+2% (w/w) BSA] was added for blocking at room temperature for 2 h. The blocking solution was discarded, and VHH-Fc antibody or negative control antibody serially diluted from 100 nM was added at 50 μL/well. After incubation at 37° C. for 2 h, the plate was washed 3 times with PBS. A secondary antibody labeled with HRP (horseradish peroxidase) (purchased from Sigma, Cat. No. A0170) was added. After incubation for 1 h at 37° C., the plate was washed 5 times with PBS. A TMB substrate was added at 50 μL/well. After incubation at room temperature for 10 min, a stop solution (1.0 N HCl) was added at 50 μL/well. The OD450 nm values were read on an ELISA plate reader (Multimode Plate Reader, EnSight, purchased from Perkin Elmer). The assay results for the binding of the VHH-Fc to hCD33-his by ELISA are shown in FIGS. 7A and 7B and Tables 11 and 12. […] The IgG control was hIgG1, and the data in the table are OD450 nm values.
(§2) ELISA plates were coated with 2 μg/mL human CD33-his protein according to the method in Example 5.1; the Biotin-C331B904 antibody was subjected to a gradient dilution from 15 μg/mL, and EC80 values (0.18 μg/mL) were calculated. […] OD_{450 nm} values were read using an ELISA plate reader (Insight, purchased from PerkinElmer). […]

human CD33-his protein [5] = biological target: T3, human CD33-his protein; assay: competition ELISA, coated human CD33-his, vs Biotin-C33B904 at EC80; antibody 31.25 nM
Description: as §1, §2

human CD33-his protein [6] = biological target: T3, human CD33-his protein; assay: competition ELISA, coated human CD33-his, vs Biotin-C33B904 at EC80; antibody 7.81 nM
Description: as §1, §2

human CD33-his protein [7] = biological target: T3, human CD33-his protein; assay: competition ELISA, coated human CD33-his, vs Biotin-C33B904 at EC80; antibody 15.63 nM
Description: as §1, §2

T3 sequence (P20138 18-259 limits assumed): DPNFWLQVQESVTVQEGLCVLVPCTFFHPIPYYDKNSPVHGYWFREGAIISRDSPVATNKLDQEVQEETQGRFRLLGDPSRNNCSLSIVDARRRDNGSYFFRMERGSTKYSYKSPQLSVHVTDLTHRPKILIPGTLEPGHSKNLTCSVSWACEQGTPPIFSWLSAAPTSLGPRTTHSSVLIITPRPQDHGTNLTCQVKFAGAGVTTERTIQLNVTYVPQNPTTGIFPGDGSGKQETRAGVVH
T1 sequence (P20138 18-259 limits assumed): as above
T2 sequence (P20138 18-364): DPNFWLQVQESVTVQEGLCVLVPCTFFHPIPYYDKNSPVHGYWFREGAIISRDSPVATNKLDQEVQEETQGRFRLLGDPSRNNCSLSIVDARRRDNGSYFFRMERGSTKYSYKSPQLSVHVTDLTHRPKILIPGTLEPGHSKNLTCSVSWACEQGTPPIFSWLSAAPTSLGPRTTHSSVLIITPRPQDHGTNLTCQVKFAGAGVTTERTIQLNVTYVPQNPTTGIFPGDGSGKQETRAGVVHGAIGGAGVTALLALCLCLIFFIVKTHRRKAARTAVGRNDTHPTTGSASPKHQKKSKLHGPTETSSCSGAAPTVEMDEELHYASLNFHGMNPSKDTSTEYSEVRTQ

Row | Binder | inhibition rate [1] [%] | EC50 [2] [nM] | Max MFI [2] [MFI] | EC50 (read off the curve) [3] [nM] | OD450 (Biotin-C33B904 signal) (human CD33-his protein [4]) | OD450 (Biotin-C33B904 signal) (human CD33-his protein [5]) | OD450 (Biotin-C33B904 signal) (human CD33-his protein [6]) | OD450 (Biotin-C33B904 signal) (human CD33-his protein [7])
1 | B1 | 98 | 8.41 | 599 | ~0.3 | – | – | – | –
2 | B2 | – | – | – | – | 0.1 | 0.46 | 1.72 | 1.03
